Reference: patent US20060078622A1, “Pharmaceutical formulations containing microparticles or nanoparticles of a delivery agent” (priority 2004, published 2006)
Like-named read-outs stand apart in the source and are kept apart here.

Text: This value was assumed to be constant in the estimates of absolute bioavailability.
The portal bioavailability provides an estimate of drug absorption from oral delivery. […] This value is used to estimate bioavailability relative to subcutaneous.

Insulin: Recombinant human zinc insulin
AUC0->T/Dose (SC (subcutaneous) dosing, average): 0.0052 kg·min/mL | Avg AUC0->T/Dose (SC, average of studies 1-8): 0.005159 kg·min/mL | AUC0->T/Dose (SC, study 1, […]): 0.005601 kg·min/mL | AUC0->T/Dose (SC, study 2, […]): 0.006514 kg·min/mL | AUC0->T/Dose (SC, study 3, 0.05 mg/kg): 0.005562 kg·min/mL | Insulin (SC, study 3, 0.05 mg/kg, time 0): 1.51 uU/ml | Insulin (SC, study 3, 0.05 mg/kg, time 15): 98.85 uU/ml | Insulin (SC, study 3, 0.05 mg/kg, time 30): 73.59 uU/ml | Insulin (SC, study 3, 0.05 mg/kg, time 45): 61.37 uU/ml | Insulin (SC, study 3, 0.05 mg/kg, time 60): 58.20 uU/ml | Insulin (SC, study 3, 0.05 mg/kg, time 120): 21.34 uU/ml | Insulin (SC, study 3, 0.05 mg/kg, time 180): 8.30 uU/ml | AUC0->T/Dose (SC, study 4, 0.05 mg/kg): 0.004929 kg·min/mL | Insulin (SC, study 4, 0.05 mg/kg, time 0): 0.37 uU/ml | Insulin (SC, study 4, 0.05 mg/kg, time 15): 103.42 uU/ml | Insulin (SC, study 4, 0.05 mg/kg, time 30): 81.64 uU/ml | Insulin (SC, study 4, 0.05 mg/kg, time 45): 68.91 uU/ml | Insulin (SC, study 4, 0.05 mg/kg, time 60): 58.58 uU/ml | Insulin (SC, study 4, 0.05 mg/kg, time 90): 32.01 uU/ml | Insulin (SC, study 4, 0.05 mg/kg, time 120): 21.15 uU/ml | AUC0->T/Dose (SC, study 5, 0.05 mg/kg): 0.001013 kg·min/mL | Insulin (SC, study 5, 0.05 mg/kg, time 0): 0 uU/ml | Insulin (SC, study 5, 0.05 mg/kg, time 15): 34.90 uU/ml | Insulin (SC, study 5, 0.05 mg/kg, time 30): 9.71 uU/ml | Insulin (SC, study 5, 0.05 mg/kg, time 45): 16.57 uU/ml | Insulin (SC, study 5, 0.05 mg/kg, time 60): 10.46 uU/ml | Insulin (SC, study 5, 0.05 mg/kg, time 90): 2.94 uU/ml | Insulin (SC, study 5, 0.05 mg/kg, time 120): 5.05 uU/ml | AUC0->T/Dose (SC, study 6, 0.05 mg/kg): 0.007644 kg·min/mL | Insulin (SC, study 6, 0.05 mg/kg, time 15): 191.67 uU/ml | Insulin (SC, study 6, 0.05 mg/kg, time 30): 119.71 uU/ml | Insulin (SC, study 6, 0.05 mg/kg, time 45): 121.33 uU/ml | Insulin (SC, study 6, 0.05 mg/kg, time 60): 74.65 uU/ml | Insulin (SC, study 6, 0.05 mg/kg, time 90): 42.88 uU/ml | Insulin (SC, study 6, 0.05 mg/kg, time 120): 25.65 uU/ml | AUC0->T/Dose (SC, study 7, 0.05 mg/kg): 0.005932 kg·min/mL | Tmax (SC, study 7, 0.05 mg/kg): 30 min | Insulin (SC, study 7, 0.05 mg/kg, time 0): 5.85 uU/ml | Insulin (SC, study 7, 0.05 mg/kg, time 15): 90.29 uU/ml | Insulin (SC, study 7, 0.05 mg/kg, time 30): 125.96 uU/ml | Insulin (SC, study 7, 0.05 mg/kg, time 45): 67.83 uU/ml | Insulin (SC, study 7, 0.05 mg/kg, time 60): 78.19 uU/ml | Insulin (SC, study 7, 0.05 mg/kg, time 90): 45.77 uU/ml | Insulin (SC, study 7, 0.05 mg/kg, time 120): 18.24 uU/ml | AUC0->T/Dose (SC, study 8, 0.05 mg/kg): 0.004079 kg·min/mL | Insulin (SC, study 8, 0.05 mg/kg, time 15): 131.71 uU/ml | Insulin (SC, study 8, 0.05 mg/kg, time 30): 70.90 uU/ml | Insulin (SC, study 8, 0.05 mg/kg, time 45): 66.28 uU/ml | Insulin (SC, study 8, 0.05 mg/kg, time 60): 0.59 uU/ml | Insulin (SC, study 8, 0.05 mg/kg, time 90): 33.96 uU/ml | Insulin (SC, study 8, 0.05 mg/kg, time 120): 14.64 uU/ml | FPE (fH) (individual animals n 1-5): 0.18 | AUC-IP (intraportal administration, Average): 9.65 | average insulin AUC0→t/Dose (subcutaneous dosing): 0.00516 kg·min/mL | AUC-JV (systemic administration, Average): 15.53
